Assay results taken from publication PMC9458457, “Processing oxidatively damaged bases at DNA strand breaks by APE1”.

Target: dAPE1 C138A E96Q/D210N (crystallization) (human, UniProt P27695 44-318, E96Q;C138A;D210N;del1-43)
Test: X-ray crystallography; 5 mM CaCl2 in reservoir; Anisotropy: 50 mM HEPES pH 7.4, 100 mM KCl, 5% glycerol, 20 mM EDTA, 37 C, 10 nM DNA. Crystals: 7-14% PEG 20K, 100 mM sodium citrate pH 5.0, 15% glycerol, 5 mM
Details: protein: recombinant; tags: untagged; nicked duplex, blunt ends; 8-oxoG opposite C (strand 1 position 12)

dAPE1 C138A E96Q/D210N (crystallization), sequence (P27695 44-318 E96Q/C138A/D210N): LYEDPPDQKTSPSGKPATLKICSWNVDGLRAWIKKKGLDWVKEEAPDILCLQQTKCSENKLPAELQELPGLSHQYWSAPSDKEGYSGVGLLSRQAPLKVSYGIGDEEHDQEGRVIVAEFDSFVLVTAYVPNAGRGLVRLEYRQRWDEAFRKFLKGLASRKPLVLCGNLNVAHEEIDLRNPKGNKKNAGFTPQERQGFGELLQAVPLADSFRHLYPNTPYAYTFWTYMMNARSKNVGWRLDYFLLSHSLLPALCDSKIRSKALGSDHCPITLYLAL

B1: 21-mer nicked 3'-8-oxoG opposite C (crystal) (mixed)
DNA 1: GGATCCGTCGACCGCATCAGC
DNA 2: GCTGATGCGG
DNA 3: TCGACGGATCC
modifications: 8-oxoG at 3' end of strand 2 (position 10, written G); 5'-phosphate on strand 3
B1: binds.
